To fix the notation:
B1: Chaperone Ric-8A (Homo sapiens), Q9NPQ8 (parent)
chain: MEPRAVAEAVETGEEDVIMEALRSYNQEHSQSFTFDDAQQEDRKRLAELLVSVLEQGLPPSHRVIWLQSVRILSRDRNCLDPFTSRQSLQALACYADISVSEGSVPESADMDVVLESLKCLCNLVLSSPVAQMLAAEARLVVKLTERVGLYRERSFPHDVQFFDLRLLFLLTALRTDVRQQLFQELKGVRLLTDTLELTLGVTPEGNPPPTLLPSQETERAMEILKVLFNITLDSIKGEVDEEDAALYRHLGTLLRHCVMIATAGDRTEEFHGHAVNLLGNLPLKCLDVLLTLEPHGDSTEFMGVNMDVIRALLIFLEKRLHKTHRLKESVAPVLSVLTECARMHRPARKFLKAQVLPPLRDVRTRPEVGEMLRNKLVRLMTHLDTDVKRVAAEFLFVLCSESVPRFIKYTGYGNAAGLLAARGLMAGGRPEGQYSEDEDTDTDEYKEAKASINPVTGRVEEKPPNPMEGMTEEQKEHEAMKLVTMFDKLSRNRVIQPMGMSPRGHLTSLQDAMCETMEQQLSSDPDSDPD
B2: Ribosome assembly protein METTL17, mitochondrial (Homo sapiens), Q9H7H0 (parent)
chain: MAAALKCLLTLGRWCPGLGVAPQARALAALVPGVTQVDNKSGFLQKRPHRQHPGILKLPHVRLPQALANGAQLLLLGSAGPTMENQVQTLTSYLWSRHLPVEPEELQRRARHLEKKFLENPDLSQTEEKLRGAVLHALRKTTYHWQELSYTEGLSLVYMAARLDGGFAAVSRAFHEIRARNPAFQPQTLMDFGSGTGSVTWAAHSIWGQSLREYMCVDRSAAMLVLAEKLLKGGSESGEPYIPGVFFRQFLPVSPKVQFDVVVSAFSLSELPSKADRTEVVQTLWRKTGHFLVLVENGTKAGHSLLMDARDLVLKGKEKSPLDPRPGFVFAPCPHELPCPQLTNLACSFSQAYHPIPFSWNKKPKEEKFSMVILARGSPEEAHRWPRITQPVLKRPRHVHCHLCCPDGHMQHAVLTARRHGRDLYRCARVSSWGDLLPVLTPSAFPPSTAQDPSES
partner: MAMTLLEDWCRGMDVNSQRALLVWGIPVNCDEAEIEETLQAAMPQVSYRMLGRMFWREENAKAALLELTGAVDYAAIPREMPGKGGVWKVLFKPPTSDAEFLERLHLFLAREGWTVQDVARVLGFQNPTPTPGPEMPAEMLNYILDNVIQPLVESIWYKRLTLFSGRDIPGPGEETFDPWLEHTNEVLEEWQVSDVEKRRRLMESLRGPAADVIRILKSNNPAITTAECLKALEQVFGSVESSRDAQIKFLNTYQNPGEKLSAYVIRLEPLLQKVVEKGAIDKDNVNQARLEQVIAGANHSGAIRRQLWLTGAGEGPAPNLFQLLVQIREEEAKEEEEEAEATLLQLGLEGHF
B3: Transmembrane protein 218 (Homo sapiens), A2RU14 (parent)
chain: MAGTVLGVGAGVFILALLWVAVLLLCVLLSRASGAARFSVIFLFFGAVIITSVLLLFPRAGEFPAPEVEVKIVDDFFIGRYVLLAFLSAIFLGGLFLVLIHYVLEPIYAKPLHSY
partner: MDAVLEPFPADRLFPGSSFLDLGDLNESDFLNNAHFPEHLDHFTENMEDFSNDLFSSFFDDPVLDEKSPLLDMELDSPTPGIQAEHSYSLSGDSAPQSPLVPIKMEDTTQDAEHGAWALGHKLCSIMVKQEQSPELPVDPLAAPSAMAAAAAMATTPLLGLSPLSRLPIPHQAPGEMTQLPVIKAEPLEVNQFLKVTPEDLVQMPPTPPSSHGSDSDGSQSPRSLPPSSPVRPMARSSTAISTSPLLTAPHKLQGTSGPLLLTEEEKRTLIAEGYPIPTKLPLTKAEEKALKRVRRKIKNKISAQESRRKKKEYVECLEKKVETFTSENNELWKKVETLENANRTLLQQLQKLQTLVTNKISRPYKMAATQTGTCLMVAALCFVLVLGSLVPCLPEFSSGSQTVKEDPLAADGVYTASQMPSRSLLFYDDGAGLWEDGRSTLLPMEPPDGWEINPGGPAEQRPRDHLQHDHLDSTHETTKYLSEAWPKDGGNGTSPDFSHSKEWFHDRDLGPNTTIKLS
B4: Ribosome assembly protein METTL17, mitochondrial (Homo sapiens), Q9H7H0 (parent)
chain: B2 chain

In one assay the parent is B1. Particulars: with praf1_human RABAC1, Q9UI14.
Chain of praf1_human RABAC1, Q9UI14 (Q9UI14 whole entry): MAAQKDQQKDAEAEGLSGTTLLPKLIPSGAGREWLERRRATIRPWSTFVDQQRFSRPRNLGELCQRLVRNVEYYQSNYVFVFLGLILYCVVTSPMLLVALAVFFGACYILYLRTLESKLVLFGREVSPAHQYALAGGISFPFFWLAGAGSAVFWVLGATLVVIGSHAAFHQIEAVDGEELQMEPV
On to K319E, for which the “effect of a mutation on the interaction” value is given as “with no effect”.

Variants of B1 are the subject of the next assay. Particulars: with ubql1_human UBQLN1, Q9UMX0.
Chain of ubql1_human UBQLN1, Q9UMX0 (Q9UMX0 whole entry): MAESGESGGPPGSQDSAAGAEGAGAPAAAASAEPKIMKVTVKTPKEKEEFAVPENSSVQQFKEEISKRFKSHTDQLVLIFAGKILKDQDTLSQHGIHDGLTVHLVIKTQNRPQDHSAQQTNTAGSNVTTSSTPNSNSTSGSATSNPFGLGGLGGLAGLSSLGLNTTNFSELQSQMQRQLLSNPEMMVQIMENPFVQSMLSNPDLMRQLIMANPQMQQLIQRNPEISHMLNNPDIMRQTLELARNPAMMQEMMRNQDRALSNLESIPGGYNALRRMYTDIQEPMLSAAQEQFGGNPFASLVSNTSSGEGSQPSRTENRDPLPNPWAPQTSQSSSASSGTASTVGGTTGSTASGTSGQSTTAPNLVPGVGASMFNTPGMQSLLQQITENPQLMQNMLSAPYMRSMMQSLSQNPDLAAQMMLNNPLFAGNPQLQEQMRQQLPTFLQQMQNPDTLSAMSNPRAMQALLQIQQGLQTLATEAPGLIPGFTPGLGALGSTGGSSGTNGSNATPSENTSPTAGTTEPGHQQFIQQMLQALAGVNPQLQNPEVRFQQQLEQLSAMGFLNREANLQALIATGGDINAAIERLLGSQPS
As to K319E, the “effect of a mutation on the interaction” value is listed as “with no effect”.

Variants of B1 are the subject of another assay. To be noted: with sdcb1_human SDCBP.
As for K319E, the “effect of a mutation on the interaction” value is “with no effect”.

The variants in another assay derive from B1. Particulars: with nutm1_human NUTM1, Q86Y26.
Chain of nutm1_human NUTM1, Q86Y26 (Q86Y26 whole entry): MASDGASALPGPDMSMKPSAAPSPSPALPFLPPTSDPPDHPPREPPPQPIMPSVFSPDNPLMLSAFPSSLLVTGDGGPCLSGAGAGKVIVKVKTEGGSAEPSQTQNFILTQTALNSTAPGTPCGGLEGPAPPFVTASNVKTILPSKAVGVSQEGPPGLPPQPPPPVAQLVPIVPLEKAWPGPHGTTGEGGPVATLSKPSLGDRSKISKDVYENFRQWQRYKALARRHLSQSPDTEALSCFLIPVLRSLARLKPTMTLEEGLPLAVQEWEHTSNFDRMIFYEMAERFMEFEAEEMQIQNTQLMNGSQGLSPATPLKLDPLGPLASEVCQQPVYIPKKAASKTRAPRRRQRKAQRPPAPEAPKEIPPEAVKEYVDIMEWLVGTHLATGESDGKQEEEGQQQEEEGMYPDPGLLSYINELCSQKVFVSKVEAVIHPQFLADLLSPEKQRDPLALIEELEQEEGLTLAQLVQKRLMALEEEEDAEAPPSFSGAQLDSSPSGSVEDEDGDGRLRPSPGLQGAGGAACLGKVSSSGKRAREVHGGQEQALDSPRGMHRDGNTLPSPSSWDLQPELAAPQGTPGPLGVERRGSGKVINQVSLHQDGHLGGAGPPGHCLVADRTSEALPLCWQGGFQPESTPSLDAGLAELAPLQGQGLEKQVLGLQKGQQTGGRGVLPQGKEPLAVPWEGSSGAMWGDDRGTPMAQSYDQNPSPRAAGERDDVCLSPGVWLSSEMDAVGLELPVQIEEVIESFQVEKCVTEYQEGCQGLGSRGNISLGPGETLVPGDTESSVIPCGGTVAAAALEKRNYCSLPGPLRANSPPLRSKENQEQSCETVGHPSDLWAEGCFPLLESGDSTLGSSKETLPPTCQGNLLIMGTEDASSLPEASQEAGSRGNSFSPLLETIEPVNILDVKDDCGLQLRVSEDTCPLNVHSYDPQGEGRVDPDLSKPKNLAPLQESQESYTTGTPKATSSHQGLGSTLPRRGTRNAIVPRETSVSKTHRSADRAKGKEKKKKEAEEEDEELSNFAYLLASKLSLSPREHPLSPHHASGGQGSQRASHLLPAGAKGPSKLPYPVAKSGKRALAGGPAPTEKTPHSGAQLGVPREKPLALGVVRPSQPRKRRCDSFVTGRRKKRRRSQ
As for K319E, the “effect of a mutation on the interaction” value is “with no effect”.

In another assay the parent is B2. To be noted: with pnma1_human PNMA1, Q8ND90.
Take R212H: the “effect of a mutation on the interaction” value is “with no effect”.

The variants in another assay derive from B3. To be noted: with cr3l1_human CREB3L1, Q96BA8.
Turning to P66S, the “effect of a mutation on the interaction” value is on record as “with no effect”.

In the next assay the parent is B4. To be noted: with sf3b4_human SF3B4, Q15427.
Chain of sf3b4_human SF3B4, Q15427 (Q15427 whole entry): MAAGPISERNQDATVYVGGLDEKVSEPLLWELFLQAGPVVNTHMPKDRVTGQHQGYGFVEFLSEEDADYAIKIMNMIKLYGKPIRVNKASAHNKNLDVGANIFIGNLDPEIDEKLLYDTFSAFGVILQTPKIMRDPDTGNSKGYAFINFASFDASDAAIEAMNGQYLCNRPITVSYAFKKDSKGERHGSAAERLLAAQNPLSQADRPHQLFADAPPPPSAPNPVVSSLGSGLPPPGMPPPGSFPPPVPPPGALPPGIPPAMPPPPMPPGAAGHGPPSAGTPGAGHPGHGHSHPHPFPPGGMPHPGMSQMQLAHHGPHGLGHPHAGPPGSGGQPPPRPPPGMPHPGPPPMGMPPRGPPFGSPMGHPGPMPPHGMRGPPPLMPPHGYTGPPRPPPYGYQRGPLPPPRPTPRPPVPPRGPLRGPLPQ
For the variant R212H, the “effect of a mutation on the interaction” value is “with no effect”.

Another assay covers variants of B4. Particulars: with mdfi_human MDFI.
With R212H, the “effect of a mutation on the interaction” value is “with no effect”.

Values taken from IntAct's records for PubMed 29892012.
